Test [1] deals with Flag-Kr-h1 (Krüppel-homolog 1 of Locusta migratoria, wildtype, methoprene-exposed) (Locusta migratoria).
Test [2] has as its target Flag-Kr-h1^S154D (Locusta migratoria).
Test [3] shares this target. This is another data set of the same source.

Consider “Flag-CtBP (C-terminal binding protein of Locusta migratoria) (natural protein)”, for which the E93 reporter activity (dual luciferase, pGL4.10-4×E93 -623 to -606) in S2 cells with 10 uM methoprene, co-expression of Flag-CtBP and Flag-Kr-h1 in test [1] is 47 % reduction. Further, the E93 reporter activity (dual luciferase, pGL4.10-4×E93 -623 to -606) in S2 cells, co-expression of Flag-CtBP and Flag-Kr-h1^S154D in test [2] amounted to 50 % reduction.

Substance “Flag-CBP (CREB-binding protein of Locusta migratoria) (natural protein)” yielded an RL36 reporter activity (dual luciferase, pGL4.10-4×RL36 -1647 to -1632) in S2 cells, co-expression of Flag-CBP and Flag-Kr-h1^S154D (fold increase) in test [3] of 1.7.

(Values after publication PMC8499471.)
